Laboratory results from paper PMC5908791.

Target: human JAK1 kinase domain (human) (UniProt P23458)
Assay: not given

Chain of UniProt P23458 (P23458 869-1153): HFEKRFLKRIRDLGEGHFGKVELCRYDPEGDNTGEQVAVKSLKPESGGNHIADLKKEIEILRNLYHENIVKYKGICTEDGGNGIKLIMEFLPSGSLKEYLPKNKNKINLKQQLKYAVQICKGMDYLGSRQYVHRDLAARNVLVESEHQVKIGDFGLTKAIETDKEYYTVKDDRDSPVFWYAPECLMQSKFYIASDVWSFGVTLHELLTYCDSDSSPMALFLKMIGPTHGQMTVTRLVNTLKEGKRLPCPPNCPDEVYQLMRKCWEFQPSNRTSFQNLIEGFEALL

| IC50 of inhibition of the JAK1 kinase domain phosphorylating a STAT5b-derived peptide (in vitro kinase assay) [nM] | Substance |
| --- | --- |
| 30 | human SOCS1 (residues 53-211) in complex with Elongins B and C (from UniProt O15524 53-211; Q15370 1-118; Q15369 17-112) |

Target: human SOCS1 (residues 53-211) in complex with Elongins B and C (human) (UniProt O15524)
Assay: ITC

| Substance | Kd [nM] |
| --- | --- |
| IL-2Rβ (pY392) | 1030 |
| IFNαR2 (pY269) | 2650 |
| IL-2Rβ (pY338) | 964 |

Results, then the substance that gave them:

| Kd [nM] | Substance |
| --- | --- |
| 614 | IL-2Rβ (pY355) |
| 209 | IL-2Rβ (pY510) |
